According to patent US6514734:
One block for each substance: values may come before it.

Tests used:
[1] = target: glucose oxidase; assay: glucose oxidase capture on discs with IgG polymer, illuminated against nonilluminated
[2] = target: glucose oxidase; assay: polyester discs with IgG polymer, illuminated, washed; glucose oxidase at 0.1 mg/ml 1 h, washed; bound glucose oxidase read with glucose/HRP/TMB; n=5, SEM 0.059
[3] = target: glucose oxidase; assay: polyester discs with IgG polymer, not illuminated, washed; glucose oxidase at 0.1 mg/ml 1 h, washed; bound glucose oxidase read with glucose/HRP/TMB; n=5, SEM 0.021
[4] = tested on: hirudin polymer (photoreactive polyacrylamide containing hirudin ligands)
[5] = target: bovine thrombin (bovine) (UniProt P00735); assay: cell-based or functional assay
[6] = target: tritium labeled human thrombin (human) (UniProt P00734); assay: 3H-thrombin binding, PE coated with 25 µg/cm^2 hirudin polymer against uncoated PE
[7] = target: tritium labeled human thrombin (human) (UniProt P00734); assay: 3H-thrombin binding, PU coated with 25 µg/cm^2 hirudin polymer against uncoated PU
[8] = target: tritium labeled human thrombin (human) (UniProt P00734); assay: 3H-thrombin at 2 µg/ml, 1 h, on PE coated with photoimmobilized hirudin polymer (25 µg/cm^2 added); scintillation counting
[9] = target: tritium labeled human thrombin (human) (UniProt P00734); assay: 3H-thrombin at 2 µg/ml, 1 h, on PU coated with photoimmobilized hirudin polymer (25 µg/cm^2 added); scintillation counting
[10] = target: tritium labeled human thrombin (human) (UniProt P00734); assay: 3H-thrombin at 2 µg/ml, 1 h, on PE coated with photoimmobilized hirudin polymer (1.0 µg/cm^2 added); scintillation counting
[11] = target: tritium labeled human thrombin (human) (UniProt P00734); assay: 3H-thrombin at 2 µg/ml, 1 h, on PE coated with photoimmobilized hirudin polymer (5.0 µg/cm^2 added); scintillation counting
[12] = target: tritium labeled human thrombin (human) (UniProt P00734); assay: 3H-thrombin at 2 µg/ml, 1 h, on PU coated with photoimmobilized hirudin polymer (1.0 µg/cm^2 added); scintillation counting
[13] = target: tritium labeled human thrombin (human) (UniProt P00734); assay: 3H-thrombin at 2 µg/ml, 1 h, on PU coated with photoimmobilized hirudin polymer (5.0 µg/cm^2 added); scintillation counting
[14] = target: tritium labeled human thrombin (human) (UniProt P00734); assay: 3H-thrombin at 2 µg/ml, 1 h, on SR coated with photoimmobilized hirudin polymer (1.0 µg/cm^2 added); scintillation counting
[15] = target: tritium labeled human thrombin (human) (UniProt P00734); assay: 3H-thrombin at 2 µg/ml, 1 h, on SR coated with photoimmobilized hirudin polymer (5.0 µg/cm^2 added); scintillation counting
[16] = target: biotin derivatized horseradish peroxidase (horseradish) (UniProt P00433); assay: biotin-HRP bound to glass rods, adsorbed against photoimmobilized streptavidin polymer
[17] = target: biotin derivatized horseradish peroxidase (horseradish) (UniProt P00433); assay: glass rods with photoimmobilized streptavidin polymer, biotin-HRP at 9 µg/ml 1 h, washed, TMB peroxidase substrate; average of 3
[18] = target: biotin derivatized horseradish peroxidase (horseradish) (UniProt P00433); assay: glass rods with adsorbed (nonilluminated) streptavidin polymer, biotin-HRP at 9 µg/ml 1 h, washed, TMB peroxidase substrate; average of 3

Sequence of biotin derivatized horseradish peroxidase (horseradish) (P00433 31-338): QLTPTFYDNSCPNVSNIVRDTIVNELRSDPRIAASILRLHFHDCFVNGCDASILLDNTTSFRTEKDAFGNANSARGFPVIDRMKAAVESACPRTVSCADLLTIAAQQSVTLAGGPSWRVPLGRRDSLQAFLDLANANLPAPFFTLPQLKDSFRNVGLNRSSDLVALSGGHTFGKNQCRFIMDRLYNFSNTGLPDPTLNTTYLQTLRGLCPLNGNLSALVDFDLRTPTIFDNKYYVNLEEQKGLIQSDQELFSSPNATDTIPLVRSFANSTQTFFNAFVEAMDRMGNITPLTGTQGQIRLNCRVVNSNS

- percent greater activity, illuminated against nonilluminated [1]: 61%
- IgG Activity (A655) [2]: 1.08 A655
- IgG Activity (A655) [3]: 0.669 A655
Substance: IgG polymer (photoreactive polyacrylamide containing tritiated rabbit anti-glucose oxidase IgG ligands) (antibody)

- specific activity (antithrombin units per mg of hirudin); remaining thrombin activity on chromogenic substrate Chromozym TH [5]: 11700 ATU/mg
Substance: recombinant hirudin

Second part, the substance before the results:

Substance: bovine thrombin
- decrease in antithrombin activity after incorporation of hirudin into the polymer [4]: only a 13% decrease in its activity

Substance: hirudin polymer (photoreactive polyacrylamide containing hirudin ligands)
- specific activity (antithrombin units per mg of hirudin); remaining thrombin activity on chromogenic substrate Chromozym TH [5]: 10200 ATU/mg
- fold greater thrombin binding than uncoated biomaterial [6]: 200 fold
- fold greater thrombin binding than uncoated biomaterial [7]: 23 fold
- Bound thrombin [8]: 0.2 µg/cm^2
- Bound thrombin [9]: 0.28 µg/cm^2
- Bound thrombin [10]: 0.02 µg/cm^2
- Bound thrombin [11]: 0.014 µg/cm^2
- Bound thrombin [12]: 0.028 µg/cm^2
- Bound thrombin [13]: 0.137 µg/cm^2
- Bound thrombin [14]: 0.004 µg/cm^2
- Bound thrombin [15]: 0.047 µg/cm^2

Substance: streptavidin polymer (photoreactive polyacrylamide containing streptavidin ligands) (from UniProt P22629 37-163)
- fold less peroxidase activity than covalent streptavidin polymer [16]: 3.5 fold
- Absorbance of Biotin-HRP [17]: 1 absorbance
- Absorbance of Biotin-HRP [18]: 0.285 absorbance
